The target in this assay is human GITR on cells (activated human T cells; 3A9-hGITR cells) (human) (UniProt Q9Y5U5). Nature of the assay: flow cytometry on anti-CD3/CD28-activated human CD4 T cells, GMFI (PE); fitted value of a flat control curve, unit from the axis. Background: A flow cytometer gives signals particle by particle.
Chain of human GITR on cells (activated human T cells; 3A9-hGITR cells) (human) (Q9Y5U5 26-241): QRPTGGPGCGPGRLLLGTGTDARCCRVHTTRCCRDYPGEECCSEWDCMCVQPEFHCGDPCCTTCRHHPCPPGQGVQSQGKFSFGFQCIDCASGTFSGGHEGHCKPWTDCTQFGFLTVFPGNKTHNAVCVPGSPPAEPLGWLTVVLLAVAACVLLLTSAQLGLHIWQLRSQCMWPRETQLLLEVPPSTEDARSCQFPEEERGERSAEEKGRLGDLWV

A word on the EC50: it is the concentration at which the effect is half-maximal. Lower therefore signals greater potency. Turning to hIgG1 Isotype Control (antibody), the EC50 turned out to be 132 nM.
